Data published in PMC8092592, “A nanobody toolbox targeting dimeric coiled-coil modules for functionalization of designed protein origami structures” (Proceedings of the National Academy of Sciences of the …, 2021).

How the values were obtained:
Conditions in all cases: both partners purified
[1] = target: T1, APH2, antiparallel homodimeric coiled coil of the synthetic peptide APHshSN (N-terminus acetylated; C-terminus amidated); assay: ITC; nanobody in the syringe titrated into the cell with TET12SN or a tetrahedron variant (2-5 µM), CC peptide dimer (5-10 µM) or a complex preformed by a first titration; MicroCal VP-ITC, 25 °C; 20 mM sodium phosphate pH 7.0, 150 mM NaCl; independent binding sites model (SEDPHAT), errors by Monte-Carlo
T1 construct: designed peptide APH (full name APHshSN); also called APH peptide pair; source: synthetic peptide, bought: ProteoGenix
T1 peptide: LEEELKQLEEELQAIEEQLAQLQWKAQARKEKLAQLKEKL

[2] = target: T2, antiparallel homodimeric APH coiled-coil (APH2), isolated peptide dimer (synthetic construct (designed peptide …)); assay: ITC; nanobody titrated into the CC peptide dimer, the origami protein or a preformed nanobody-target complex; conditions in SI Appendix
T2 construct: residues named in the text: E4, L8, I15, Q18, Q21, L22, W24, K25, R29; also called APH CC; APH2 peptide; source: synthetic peptide
T2 chain: T1 peptide

[3] = target: T2, antiparallel homodimeric APH …; assay: crystal structure; crystals of nanobody-CC dimer complexes, solved by molecular replacement
[4] = target: T3, preformed Nb28_2-APH2 complex (llama, N-terminus acetylated; C-terminus amidated); assay: ITC; nanobody in the syringe titrated into the cell with TET12SN or a tetrahedron variant (2-5 µM), CC peptide dimer (5-10 µM) or a complex preformed by a first titration; MicroCal VP-ITC, 25 °C; 20 mM sodium phosphate pH 7.0, 150 mM NaCl; independent binding sites model (SEDPHAT), errors by Monte-Carlo
T3 construct: peptide APHshSN, as Dm8; Nb28, as Dm3; source: formed in the ITC cell by a first titration of Nb28 into APH2; copies: 2 + 2

[5] = target: T4, preformed Nb30_2-APH2 complex (llama, N-terminus acetylated; C-terminus amidated); assay: as above
T4 construct: peptide APHshSN, as Dm8; Nb30, as Dm5; source: formed in the ITC cell by a first titration of Nb30 into APH2; copies: 2 + 2

[6] = target: T1, APH2, antiparallel homodimeric coiled …; assay: ITC; titrations at 18, 25 and 32 °C fitted globally (independent binding sites, temperature-independent heat capacity); parameters reported at 25 °C; 20 mM sodium phosphate pH 7.0, 150 mM NaCl

B1: nanobody Nb49 (VHH)
VHH: QVQLQESGGGLVQPGGSLRLSCIASGRTFNPYGMGWFRQVPGKERTFVSGITWIGGTTYYVNSVKGRFTISRDRAKNTVYLQMNSLKPEDTAVYYCAADKDNTGYNYWGQGTQVTVSS
notes: no cleavage of the His6 tag is described; also called Group 4 (Nb49); source: E. coli WK6, periplasmic extract, purified (Ni2+-NTA; some nanobodies also SEC)
- stoichiometry N [1]: 2 nanobody per APH2 dimer (cell:syringe)

B2: nanobody Nb49 (VHH)
VHH: B1 VHH
notes: selected by phage display from a llama immunised with TET12SN; construct and tags are in SI Appendix, Materials and Methods; source: E. coli, recombinant, produced and isolated according to standard procedures
- Kd [2]: 570 nM
- stoichiometry N [3]: 2 nanobodies per APH2 dimer (printed 2:2 nanobody:CC peptide)

B3: nanobody Nb30 (VHH)
VHH: QVQLQESGGGLVQPGGSLRLSCAASGSIFSDNDMGWYRQPPGKQREWVATITYDHVTWYADSVKGRFAISRDNAKNTVYLQMNDLKPEDTAVYYCNAVPGRRGSWGQGTQVTVSS
notes: no cleavage of the His6 tag is described; also called Group 10 (Nb30); source: E. coli WK6, periplasmic extract, purified (Ni2+-NTA, SEC)
- Kd [1]: 710 ± 58 nM
- stoichiometry N [1]: 2 nanobody per APH2 dimer (cell:syringe)
- Kd [4]: 55 ± 4.2 nM
- stoichiometry N [4]: 2 nanobody per complex (cell:syringe)

B4: nanobody Nb30 (VHH)
VHH: B3 VHH
notes: as for B2
- stoichiometry N [3]: 2 nanobodies per APH2 dimer (printed 2:2 nanobody:CC peptide)

B5: nanobody Nb28 (VHH)
VHH: QVQLQESGGGLVQPGGSLRLSCAAPGFRLDNYVIGWFRQAPGKEREGVSCISSSAGSTYYADSVKGRFTISRDNAKNTVYLQMNSLKPEDTAVYYCATACYSSYVTYWGQGTQVTVSS
notes: no cleavage of the His6 tag is described; also called Group 8 (Nb28); source: E. coli WK6, periplasmic extract, purified (Ni2+-NTA; some nanobodies also SEC)
- Kd [5]: 23 ± 1.7 nM
- stoichiometry N [5]: 2 nanobody per complex (cell:syringe)
- Kd [1]: 140 ± 10 nM
- stoichiometry N [1]: 2 nanobody per APH2 dimer (cell:syringe)
- Kd [6]: 94 ± 7.5 nM
- stoichiometry N [6]: 2 nanobody per APH2 dimer (cell:syringe)

B6: nanobody Nb28 (VHH)
VHH: B5 VHH
notes: as for B2
- stoichiometry N [3]: 2 nanobodies per APH2 dimer (printed 2:2 nanobody:CC peptide)

B7: nanobody Nb26 (VHH)
VHH: QVQLQESGGGLVQAGDSLRLSCAASGRTFSTYPMGWFRQAPGKEREFVAASSSRAYYADSVKGRFTISRNNAKNTVYLQMNSLKPEDTAVYYCVADSSPYYRRYDAAQDYDYWGQGTQVTVSS
notes: no cleavage of the His6 tag is described; also called Group 1 (Nb26); source: E. coli WK6, periplasmic extract, purified (Ni2+-NTA; some nanobodies also SEC)
- stoichiometry N [1]: 2 nanobody per APH2 dimer (cell:syringe)

B8: nanobody Nb26 (VHH)
VHH: B7 VHH
notes: as for B2
- Kd [2]: 39 nM
- dH [2]: -28 kcal ⋅ mol^−1
- stoichiometry N [3]: 2 nanobodies per APH2 dimer (printed 2:2 nanobody:CC peptide)
